Data reported in patent publication US20240116985A1 (published 2024).
Starred links: 1 amine or outer side, 2 acyl side, 3 side chain; linkers in the order of their positions; H or OH if unused. Positions of bridges follow the written chain, without caps; N, C: chain ends. Non-standard residues stand in square brackets, D forms with d. Primed or numbered codes have the meaning given here. PyrS2″ = (S)-3-amino-1-((pent-4-en-1-yloxy)carbonyl)pyrrolidine-3-carboxylic acid (stapling residue), C=CCCCOC(=O)N1CC[C@@](N[*:1])(C(=O)[*:2])C1; B5(4) = 2,2-bis(4-pentenyl)glycine = 2-amino-2-(pent-4-en-1-yl)hept-6-enoic acid (stitching residue), C=CCCCC(CCCC=C)(N[*:1])C(=O)[*:2]; B5(20) = 2-amino-2-(pent-4-en-1-yl)hept-6-enoic acid = bis(4-pentenyl)glycine, stitching residue, C=CCCCC(CCCC=C)(N[*:1])C(=O)[*:2]; PyrS2 = (S)-3-amino-1-((pent-4-en-1-yloxy)carbonyl)pyrrolidine-3-carboxylic acid, C=CCCCOC(=O)N1CC[C@@](N[*:1])(C(=O)[*:2])C1; B5 = 2-amino-2-(pent-4-en-1-yl)hept-6-enoic acid, C=CCCCC(CCCC=C)(N[*:1])C(=O)[*:2]; Phe(2-CONH2) = NC(=O)c1ccccc1C[C@H](N)C(=O)O; Trp(1-Me) = Cn1cc(C[C@H](N)C(=O)O)c2ccccc21; Phe(2-Cl) = N[C@@H](Cc1ccccc1Cl)C(=O)O; Bta = N[C@@H](Cc1csc2ccccc12)C(=O)O; Lys(iPr) = CC(C)NCCCC[C@H](N)C(=O)O; αAllylPro = C=CC[C@@]1(C(=O)O)CCCN1; tBuAla = CC(C)(C)C[C@H](N)C(=O)O; S8 = C=CCCCCCC[C@](C)(N)C(=O)O

T1: full-length beta-Catenin (Uniprot ID P35222) (Homo sapiens (Human), UniProt P35222 2-781)
T1 construct: also called bCat; B-Catenin
T1 sequence: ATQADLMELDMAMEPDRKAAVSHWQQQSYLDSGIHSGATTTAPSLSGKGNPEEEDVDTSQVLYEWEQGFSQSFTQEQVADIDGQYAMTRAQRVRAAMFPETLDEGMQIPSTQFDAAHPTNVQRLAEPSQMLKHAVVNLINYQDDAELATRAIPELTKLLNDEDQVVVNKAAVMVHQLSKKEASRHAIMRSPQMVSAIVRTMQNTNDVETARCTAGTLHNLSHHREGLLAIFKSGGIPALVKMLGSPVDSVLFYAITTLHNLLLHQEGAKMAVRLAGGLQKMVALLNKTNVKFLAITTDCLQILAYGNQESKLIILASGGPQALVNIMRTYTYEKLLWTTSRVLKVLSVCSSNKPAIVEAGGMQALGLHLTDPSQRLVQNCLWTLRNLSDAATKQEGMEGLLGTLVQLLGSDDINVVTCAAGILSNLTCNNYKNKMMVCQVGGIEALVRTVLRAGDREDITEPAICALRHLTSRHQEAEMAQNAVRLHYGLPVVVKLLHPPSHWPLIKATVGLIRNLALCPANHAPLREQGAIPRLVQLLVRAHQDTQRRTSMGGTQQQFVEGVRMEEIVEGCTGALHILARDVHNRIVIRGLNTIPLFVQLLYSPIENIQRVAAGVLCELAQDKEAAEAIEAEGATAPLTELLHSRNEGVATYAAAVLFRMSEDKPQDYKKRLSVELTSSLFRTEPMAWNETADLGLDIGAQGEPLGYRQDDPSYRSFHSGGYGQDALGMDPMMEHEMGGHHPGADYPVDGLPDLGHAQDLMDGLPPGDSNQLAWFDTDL

T2: full-length beta-Catenin (Uniprot ID P35222) (Homo sapiens (Human), UniProt P35222 1-781)
T2 construct: also called bCat; B-Catenin
T2 sequence: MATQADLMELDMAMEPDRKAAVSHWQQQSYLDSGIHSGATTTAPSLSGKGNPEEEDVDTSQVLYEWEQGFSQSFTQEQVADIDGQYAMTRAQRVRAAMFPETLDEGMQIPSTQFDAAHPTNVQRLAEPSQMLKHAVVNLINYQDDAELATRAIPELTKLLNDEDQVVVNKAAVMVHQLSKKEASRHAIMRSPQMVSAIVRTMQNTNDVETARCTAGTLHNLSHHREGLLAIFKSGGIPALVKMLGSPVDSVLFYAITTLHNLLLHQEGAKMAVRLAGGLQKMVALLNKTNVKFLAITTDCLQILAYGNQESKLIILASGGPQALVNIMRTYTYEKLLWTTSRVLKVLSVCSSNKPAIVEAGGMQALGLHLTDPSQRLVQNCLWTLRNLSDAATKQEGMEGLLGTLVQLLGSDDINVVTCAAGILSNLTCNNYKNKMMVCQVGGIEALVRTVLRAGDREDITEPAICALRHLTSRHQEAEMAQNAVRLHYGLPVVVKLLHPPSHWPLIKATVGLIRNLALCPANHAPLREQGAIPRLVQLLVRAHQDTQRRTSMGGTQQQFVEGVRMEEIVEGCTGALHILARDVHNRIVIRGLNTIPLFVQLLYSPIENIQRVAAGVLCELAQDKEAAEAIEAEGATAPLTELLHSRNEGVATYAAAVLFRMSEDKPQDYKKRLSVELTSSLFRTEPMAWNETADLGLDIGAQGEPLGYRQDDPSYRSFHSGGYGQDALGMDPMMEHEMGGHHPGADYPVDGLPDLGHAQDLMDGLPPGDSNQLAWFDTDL

T3: Bcat-Halo (UniProt P35222 1-781, HaloTag NanoBRET 618 Ligand bound in the assay)
T3 construct: Expressed by transfection in HEK293 cells; also called beta-catenin HaloTag NanoBRET construct; not shown: HaloTag
T3 sequence (looked up): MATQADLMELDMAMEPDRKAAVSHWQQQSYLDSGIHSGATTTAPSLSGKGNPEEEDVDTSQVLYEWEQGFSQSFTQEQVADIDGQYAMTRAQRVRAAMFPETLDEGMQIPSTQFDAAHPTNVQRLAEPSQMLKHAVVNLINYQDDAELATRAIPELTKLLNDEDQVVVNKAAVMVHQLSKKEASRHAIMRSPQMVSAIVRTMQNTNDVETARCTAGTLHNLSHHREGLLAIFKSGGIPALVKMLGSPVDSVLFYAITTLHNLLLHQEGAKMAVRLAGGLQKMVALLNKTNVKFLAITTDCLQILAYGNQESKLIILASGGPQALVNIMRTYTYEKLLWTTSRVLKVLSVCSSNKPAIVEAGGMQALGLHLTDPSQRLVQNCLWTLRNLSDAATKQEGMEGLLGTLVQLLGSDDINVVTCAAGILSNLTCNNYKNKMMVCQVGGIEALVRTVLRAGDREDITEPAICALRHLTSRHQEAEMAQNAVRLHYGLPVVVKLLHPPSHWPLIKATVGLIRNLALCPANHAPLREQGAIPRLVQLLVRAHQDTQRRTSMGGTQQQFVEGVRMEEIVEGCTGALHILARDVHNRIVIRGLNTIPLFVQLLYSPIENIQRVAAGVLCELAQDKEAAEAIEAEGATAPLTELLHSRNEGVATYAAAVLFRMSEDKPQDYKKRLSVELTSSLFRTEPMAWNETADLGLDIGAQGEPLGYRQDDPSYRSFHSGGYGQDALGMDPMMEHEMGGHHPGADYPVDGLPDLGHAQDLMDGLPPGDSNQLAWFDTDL

T4: full-length beta-Catenin (Uniprot ID P35222) (Homo sapiens (Human), UniProt P35222 2-781)
T4 construct: also called bCat; B-Catenin
T4 sequence: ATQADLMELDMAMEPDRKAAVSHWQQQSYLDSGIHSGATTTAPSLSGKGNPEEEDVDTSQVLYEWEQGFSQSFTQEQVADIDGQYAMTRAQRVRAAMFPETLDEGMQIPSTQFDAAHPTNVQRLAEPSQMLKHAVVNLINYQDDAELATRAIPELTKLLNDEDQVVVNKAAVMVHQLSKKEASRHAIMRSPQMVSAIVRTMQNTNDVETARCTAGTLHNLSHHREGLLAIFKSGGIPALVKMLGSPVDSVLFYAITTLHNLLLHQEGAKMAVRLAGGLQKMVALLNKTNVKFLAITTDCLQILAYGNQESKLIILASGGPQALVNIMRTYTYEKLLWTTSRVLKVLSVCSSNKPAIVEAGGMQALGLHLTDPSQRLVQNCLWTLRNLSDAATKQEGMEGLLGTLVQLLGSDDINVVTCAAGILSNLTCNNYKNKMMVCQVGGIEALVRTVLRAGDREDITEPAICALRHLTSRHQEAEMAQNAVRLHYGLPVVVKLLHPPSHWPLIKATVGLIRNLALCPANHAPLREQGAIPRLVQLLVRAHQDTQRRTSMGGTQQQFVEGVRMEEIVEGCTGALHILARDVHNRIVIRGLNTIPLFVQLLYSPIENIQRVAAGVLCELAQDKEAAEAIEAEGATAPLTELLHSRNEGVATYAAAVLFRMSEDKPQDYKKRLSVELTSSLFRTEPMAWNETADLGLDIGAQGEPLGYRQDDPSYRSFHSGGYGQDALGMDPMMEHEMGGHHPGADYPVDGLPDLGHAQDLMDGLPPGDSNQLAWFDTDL


How the values were obtained:
[1] = molecular target: T1, full-length beta-Catenin (Uniprot ID …); experiment: fluorescence polarization competition; full-length beta-catenin, 5FAM-TCF4(10-53) probe as competitor
Description: (§1) The plate was incubated protected from light for 60 minutes at 20° C. prior to read. Reads were performed on a CLARIOstar plate reader (BMG Labtech) in duplicate, and data were fitted to a 1:1 binding model with hill slope using an in-house script. All provided concentrations are final concentrations.

[2] = molecular target: T2, full-length beta-Catenin (Uniprot ID …); experiment: FP competition: full-length beta-catenin 10 nM + 5FAM-TCF4(10-53) 10 nM
Description: as §1

[3] = molecular target: T3, Bcat-Halo; experiment: NanoBRET Abs IC50 in HEK293 cells; competitor TCF4-Luc on Bcat-Halo
[4] = molecular target: T4, full-length beta-Catenin (Uniprot ID …); experiment: fluorescence polarization competition vs 5FAM-TCF4(10-53) on full-length beta-catenin
Outline: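 Data fitted to 1:1 binding model with hill slope from duplicate reads taken after 60 minutes at 20° C. in the dark.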

Binder	IC50 [1]	also measured
Ac-[αAllylPro]NW[B5(4)]DT[Lys(iPr)]AFL[PyrS2″]F[Bta]Q-NH2 (staple 1-4, 4-11) [I-1581]	10 µM	–
Ac-[αAllylPro]DA[B5(20)]DEAAFN[S8][Phe(2-CONH2)][Bta]H-NH2 (staple 1-4, 4-11, Stapled peptide composition) [I-513]	–	IC50 [2]: 0.143 µM
Ac-[αAllylPro]DF[B5]DDAAFS[PyrS2][Phe(2-Cl)][Bta][dT]-NH2 (staple 1-4, 4-11, Stapled (stitched) peptide composition; olefin isomer not specified) [I-1142]	–	IC50 [3]: > 20 µM; IC50 [4]: 0.022 µM
Ac-[αAllylPro]N[tBuAla][B5(4)]DT[Lys(iPr)]AFL[PyrS2″]F[Trp(1-Me)]Q-NH2 (staple 1-4, 4-11) [I-1589]	10 µM	–

More lines, in order of falling IC50 [1], values ahead:

IC50 [1]	Binder	also measured
7.52 µM	Ac-[αAllylPro]N[tBuAla][B5(4)]DT[Lys(iPr)]AFL[PyrS2]YWQ-NH2 (staple 1-4, 4-11) [I-1590]	–
3.11 µM	Ac-[αAllylPro]N[Lys(iPr)][B5(4)]DT[Lys(iPr)]AFL[PyrS2]F[Bta]Q-NH2 (staple 1-4, 4-11) [I-1591]	–
2.44 µM	Ac-[αAllylPro]NQ[B5(4)]DT[Lys(iPr)]AFL[PyrS2″]F[Bta]Q-NH2 (staple 1-4, 4-11) [I-1584]	–
1.22 µM	Ac-[αAllylPro]NL[B5(4)]DT[Lys(iPr)]AFL[PyrS2″]F[Bta]Q-NH2 (staple 1-4, 4-11) [I-1582]	–
